Reference: US20260217779A1 (Chugai, published 2026)

B1: hCXCL11.0032-G1T4k.one//VHn-G1T4h.one.H435R (Fc fusion)
chain 1: PFPMFKRGRCLCIGPGVKAVKVADIEKASIMYPSNNCDKIEVIITLKENKGQRCLNPKSKQARLIIKKVERKNFEPKSSDKTHTCPPCPAPELRRGPSVFLFPPKPKDTLMISRTPEVTCVVVDVSHEDPEVKFNWYVDGVEVHNAKTKPREEQYNSTYRVVSVLTVLHQDWLNGKEYKCKVSNKGLPSSIEKTISKAKGQPREPQVCTLPPSREEMTKNQVSLWCLVKGFYPSDIAVEWESNGQPENNYKTTPPVLDSDGSFFLYSKLTVDKSRWQEGNVFSCSVMHEALHNHYTQKSLSLSP
chain 2: EPKSSDKTHTCPPCPAPELRRGPSVFLFPPKPKDTLMISRTPEVTCVVVDVSHEDPEVKFNWYVDGVEVHNAKTKPREEQYNSTYRVVSVLTVLHQDWLNGKEYKCKVSNKGLPSSIEKTISKAKGQPREPQVYTLPPSRCEMTKNQVSLSCAVKGFYPSDIAVEWESNGQPENNYKTTPPVLDSDGSFFLVSKLTVDKSRWQEGNVFSCSVMHEALHNRYTQKSLSLSP
B2: hCXCL11.0035-G1T4k.one//VHn-G1T4h.one.H435R (Fc fusion)
chain 1: SFPMFKRGRCLCIGPGVKAVKVADIEKASIMYPSNNCDKIEVIITLKENKGQRCLNPKSKQARLIIKKVERKNFEPKSSDKTHTCPPCPAPELRRGPSVFLFPPKPKDTLMISRTPEVTCVVVDVSHEDPEVKFNWYVDGVEVHNAKTKPREEQYNSTYRVVSVLTVLHQDWLNGKEYKCKVSNKGLPSSIEKTISKAKGQPREPQVCTLPPSREEMTKNQVSLWCLVKGFYPSDIAVEWESNGQPENNYKTTPPVLDSDGSFFLYSKLTVDKSRWQEGNVFSCSVMHEALHNHYTQKSLSLSP
chain 2: EPKSSDKTHTCPPCPAPELRRGPSVFLFPPKPKDTLMISRTPEVTCVVVDVSHEDPEVKFNWYVDGVEVHNAKTKPREEQYNSTYRVVSVLTVLHQDWLNGKEYKCKVSNKGLPSSIEKTISKAKGQPREPQVYTLPPSRCEMTKNQVSLSCAVKGFYPSDIAVEWESNGQPENNYKTTPPVLDSDGSFFLVSKLTVDKSRWQEGNVFSCSVMHEALHNRYTQKSLSLSP
B3: hCXCL11.0038-G1T4k.one//VHn-G1T4h.one.H435R (Fc fusion)
chain 1: WFPMFKRGRCLCIGPGVKAVKVADIEKASIMYPSNNCDKIEVIITLKENKGQRCLNPKSKQARLIIKKVERKNFEPKSSDKTHTCPPCPAPELRRGPSVFLFPPKPKDTLMISRTPEVTCVVVDVSHEDPEVKFNWYVDGVEVHNAKTKPREEQYNSTYRVVSVLTVLHQDWLNGKEYKCKVSNKGLPSSIEKTISKAKGQPREPQVCTLPPSREEMTKNQVSLWCLVKGFYPSDIAVEWESNGQPENNYKTTPPVLDSDGSFFLYSKLTVDKSRWQEGNVFSCSVMHEALHNHYTQKSLSLSP
chain 2: EPKSSDKTHTCPPCPAPELRRGPSVFLFPPKPKDTLMISRTPEVTCVVVDVSHEDPEVKFNWYVDGVEVHNAKTKPREEQYNSTYRVVSVLTVLHQDWLNGKEYKCKVSNKGLPSSIEKTISKAKGQPREPQVYTLPPSRCEMTKNQVSLSCAVKGFYPSDIAVEWESNGQPENNYKTTPPVLDSDGSFFLVSKLTVDKSRWQEGNVFSCSVMHEALHNRYTQKSLSLSP
B4: hCXCL11.0037-G1T4k.one//VHn-G1T4h.one.H435R (Fc fusion)
chain 1: VFPMFKRGRCLCIGPGVKAVKVADIEKASIMYPSNNCDKIEVIITLKENKGQRCLNPKSKQARLIIKKVERKNFEPKSSDKTHTCPPCPAPELRRGPSVFLFPPKPKDTLMISRTPEVTCVVVDVSHEDPEVKFNWYVDGVEVHNAKTKPREEQYNSTYRVVSVLTVLHQDWLNGKEYKCKVSNKGLPSSIEKTISKAKGQPREPQVCTLPPSREEMTKNQVSLWCLVKGFYPSDIAVEWESNGQPENNYKTTPPVLDSDGSFFLYSKLTVDKSRWQEGNVFSCSVMHEALHNHYTQKSLSLSP
chain 2: EPKSSDKTHTCPPCPAPELRRGPSVFLFPPKPKDTLMISRTPEVTCVVVDVSHEDPEVKFNWYVDGVEVHNAKTKPREEQYNSTYRVVSVLTVLHQDWLNGKEYKCKVSNKGLPSSIEKTISKAKGQPREPQVYTLPPSRCEMTKNQVSLSCAVKGFYPSDIAVEWESNGQPENNYKTTPPVLDSDGSFFLVSKLTVDKSRWQEGNVFSCSVMHEALHNRYTQKSLSLSP
B5: hCXCL11.0039-G1T4k.one//VHn-G1T4h.one.H435R (Fc fusion)
chain 1: YFPMFKRGRCLCIGPGVKAVKVADIEKASIMYPSNNCDKIEVIITLKENKGQRCLNPKSKQARLIIKKVERKNFEPKSSDKTHTCPPCPAPELRRGPSVFLFPPKPKDTLMISRTPEVTCVVVDVSHEDPEVKFNWYVDGVEVHNAKTKPREEQYNSTYRVVSVLTVLHQDWLNGKEYKCKVSNKGLPSSIEKTISKAKGQPREPQVCTLPPSREEMTKNQVSLWCLVKGFYPSDIAVEWESNGQPENNYKTTPPVLDSDGSFFLYSKLTVDKSRWQEGNVFSCSVMHEALHNHYTQKSLSLSP
chain 2: EPKSSDKTHTCPPCPAPELRRGPSVFLFPPKPKDTLMISRTPEVTCVVVDVSHEDPEVKFNWYVDGVEVHNAKTKPREEQYNSTYRVVSVLTVLHQDWLNGKEYKCKVSNKGLPSSIEKTISKAKGQPREPQVYTLPPSRCEMTKNQVSLSCAVKGFYPSDIAVEWESNGQPENNYKTTPPVLDSDGSFFLVSKLTVDKSRWQEGNVFSCSVMHEALHNRYTQKSLSLSP
B6: hCXCL11.0033-G1T4k.one//VHn-G1T4h.one.H435R (Fc fusion)
chain 1: QFPMFKRGRCLCIGPGVKAVKVADIEKASIMYPSNNCDKIEVIITLKENKGQRCLNPKSKQARLIIKKVERKNFEPKSSDKTHTCPPCPAPELRRGPSVFLFPPKPKDTLMISRTPEVTCVVVDVSHEDPEVKFNWYVDGVEVHNAKTKPREEQYNSTYRVVSVLTVLHQDWLNGKEYKCKVSNKGLPSSIEKTISKAKGQPREPQVCTLPPSREEMTKNQVSLWCLVKGFYPSDIAVEWESNGQPENNYKTTPPVLDSDGSFFLYSKLTVDKSRWQEGNVFSCSVMHEALHNHYTQKSLSLSP
chain 2: EPKSSDKTHTCPPCPAPELRRGPSVFLFPPKPKDTLMISRTPEVTCVVVDVSHEDPEVKFNWYVDGVEVHNAKTKPREEQYNSTYRVVSVLTVLHQDWLNGKEYKCKVSNKGLPSSIEKTISKAKGQPREPQVYTLPPSRCEMTKNQVSLSCAVKGFYPSDIAVEWESNGQPENNYKTTPPVLDSDGSFFLVSKLTVDKSRWQEGNVFSCSVMHEALHNRYTQKSLSLSP
B7: hCXCL11.0034-G1T4k.one//VHn-G1T4h.one.H435R (Fc fusion)
chain 1: RFPMFKRGRCLCIGPGVKAVKVADIEKASIMYPSNNCDKIEVIITLKENKGQRCLNPKSKQARLIIKKVERKNFEPKSSDKTHTCPPCPAPELRRGPSVFLFPPKPKDTLMISRTPEVTCVVVDVSHEDPEVKFNWYVDGVEVHNAKTKPREEQYNSTYRVVSVLTVLHQDWLNGKEYKCKVSNKGLPSSIEKTISKAKGQPREPQVCTLPPSREEMTKNQVSLWCLVKGFYPSDIAVEWESNGQPENNYKTTPPVLDSDGSFFLYSKLTVDKSRWQEGNVFSCSVMHEALHNHYTQKSLSLSP
chain 2: EPKSSDKTHTCPPCPAPELRRGPSVFLFPPKPKDTLMISRTPEVTCVVVDVSHEDPEVKFNWYVDGVEVHNAKTKPREEQYNSTYRVVSVLTVLHQDWLNGKEYKCKVSNKGLPSSIEKTISKAKGQPREPQVYTLPPSRCEMTKNQVSLSCAVKGFYPSDIAVEWESNGQPENNYKTTPPVLDSDGSFFLVSKLTVDKSRWQEGNVFSCSVMHEALHNRYTQKSLSLSP
B8: hCXCL11.0036-G1T4k.one//VHn-G1T4h.one.H435R (Fc fusion)
chain 1: TFPMFKRGRCLCIGPGVKAVKVADIEKASIMYPSNNCDKIEVIITLKENKGQRCLNPKSKQARLIIKKVERKNFEPKSSDKTHTCPPCPAPELRRGPSVFLFPPKPKDTLMISRTPEVTCVVVDVSHEDPEVKFNWYVDGVEVHNAKTKPREEQYNSTYRVVSVLTVLHQDWLNGKEYKCKVSNKGLPSSIEKTISKAKGQPREPQVCTLPPSREEMTKNQVSLWCLVKGFYPSDIAVEWESNGQPENNYKTTPPVLDSDGSFFLYSKLTVDKSRWQEGNVFSCSVMHEALHNHYTQKSLSLSP
chain 2: EPKSSDKTHTCPPCPAPELRRGPSVFLFPPKPKDTLMISRTPEVTCVVVDVSHEDPEVKFNWYVDGVEVHNAKTKPREEQYNSTYRVVSVLTVLHQDWLNGKEYKCKVSNKGLPSSIEKTISKAKGQPREPQVYTLPPSRCEMTKNQVSLSCAVKGFYPSDIAVEWESNGQPENNYKTTPPVLDSDGSFFLVSKLTVDKSRWQEGNVFSCSVMHEALHNRYTQKSLSLSP

What follows are binders tested against T1, human CXCR3 (hCXCR3) on Ba/F3 transfectant cells (human, UniProt P49682 1-368) (assay: cell-based or functional assay).
T1 sequence: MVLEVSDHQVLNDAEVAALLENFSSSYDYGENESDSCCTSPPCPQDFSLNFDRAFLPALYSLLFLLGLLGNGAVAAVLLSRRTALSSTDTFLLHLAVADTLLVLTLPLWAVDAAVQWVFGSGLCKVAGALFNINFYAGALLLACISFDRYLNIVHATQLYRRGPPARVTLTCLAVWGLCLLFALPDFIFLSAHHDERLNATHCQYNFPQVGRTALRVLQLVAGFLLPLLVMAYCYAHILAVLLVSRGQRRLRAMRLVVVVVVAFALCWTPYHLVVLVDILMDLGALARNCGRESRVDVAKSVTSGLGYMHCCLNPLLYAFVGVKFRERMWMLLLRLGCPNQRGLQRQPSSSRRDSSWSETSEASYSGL

Binder | Activity retention rate at 33 nM [%] | Activity retention rate at 100 nM [%] | Activity retention rate at 300 nM [%] | Luminescence value at 33 nM | Luminescence value at 100 nM | Luminescence value at 300 nM
B1 | 33 | 68 | 105 | 2.5e+06 | 1.13e+07 | 1.31e+07
B2 | 161 | 95 | 42 | 1.23e+07 | 1.58e+07 | 5.23e+06
B3 | 60 | 83 | 99 | 4.63e+06 | 1.39e+07 | 1.23e+07
B4 | 111 | 111 | 73 | 8.51e+06 | 1.85e+07 | 9.07e+06
B5 | 102 | 86 | 75 | 7.86e+06 | 1.43e+07 | 9.32e+06
B6 | 199 | 92 | 28 | 1.53e+07 | 1.53e+07 | 3.46e+06
B7 | 19 | 45 | 77 | 1.49e+06 | 7.45e+06 | 9.63e+06
B8 | 140 | 105 | 53 | 1.07e+07 | 1.76e+07 | 6.59e+06
